Laboratory results published in patent EP2108954A1, “A test system for detecting intracellular cyclic nucleotide level and methods and uses thereof” (Max-Planck-Gesellschaft zur Förderung der Wissenschaften …, priority 2008, dated 2009).
The star is where a group is joined. Myristoyl = CCCCCCCCCCCCCC(=O)*

Target: T1, Or83b (Drosophila melanogaster, UniProt Q9VNB5)
T1 sequence (Q9VNB5 1-486): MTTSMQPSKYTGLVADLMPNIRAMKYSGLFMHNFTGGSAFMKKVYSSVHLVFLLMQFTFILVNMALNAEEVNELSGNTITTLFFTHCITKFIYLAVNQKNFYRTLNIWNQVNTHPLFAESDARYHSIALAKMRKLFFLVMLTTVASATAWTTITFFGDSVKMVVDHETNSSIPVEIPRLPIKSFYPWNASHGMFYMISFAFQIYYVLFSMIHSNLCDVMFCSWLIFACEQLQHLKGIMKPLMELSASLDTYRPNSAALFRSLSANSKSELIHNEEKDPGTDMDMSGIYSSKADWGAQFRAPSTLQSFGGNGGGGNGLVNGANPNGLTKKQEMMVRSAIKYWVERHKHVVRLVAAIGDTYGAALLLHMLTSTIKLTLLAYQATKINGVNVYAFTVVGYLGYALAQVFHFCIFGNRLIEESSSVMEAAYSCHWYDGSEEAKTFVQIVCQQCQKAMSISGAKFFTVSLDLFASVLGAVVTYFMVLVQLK
Experiment: Whole-cell patch-clamp of HEK293 cells expressing Or83b alone
Assay type: cell-based
Parameters: expressed in transfected cells; host or cells: HEK293
Conditions: 1 µM; n = 6
Protocol: HEK293 cells were cultured as described by Wicher and colleagues (Wicher et al., J. Biol. Chem. 281, 3227-36 (2006)). In brief, HEK293 cells were cultured at a density of ∼2*10^4 per 35-mm dish and transfected with 1 µg pcDNA3-DOR22a-GFP and 1 µg pcDNA3-DOR83b-GFP (Neuhaus, et al., Nat. Neurosci. 8, 15-17 (2005); DNAs were a generous gift of Dr. E. Neuhaus and Dr. H. Hatt) using Roti-Fect transfection kit (Roth, Karlsruhe, Germany). In some experiments we transfected cells with pcDNA3-DOR22a-GFP or pcDNA3-DOR83b-GFP alone. We also examined the properties of DOR47a, which was cloned, using standard molecular biology methods into a pcDNA3.1(-) expression vector. To test for putative G-protein coupling, cells were transfected with the respective OR-DNA together with 1.5 µg hHCN2/pcDNA3 (provided by M. Biel, Munich, Germany), with 1 µg hKCNQ4/pcDNA3.1 or with 1 µg hCNGA2/pCMV6-XL4 (Origene, Rockville, MD, USA).
Ion currents in HEK293 cells were measured with the patch-clamp technology as described (Wicher et al, J. Biol. Chem. 281, 3227-36 (2006)). In brief, ion currents in HEK293 cells were measured at room temperature using whole-cell patch-clamp with appropriate compensation of series resistance and of capacitive currents. Additional experiments were performed in the outside-out configuration. […]

Substance: myristoylated PKA inhibiting peptide 14-22 amide (Myristoyl-SGRTGRRNA-NH2; SMILES CCCCCCCCCCCCCC(=O)N[C@@H](CO)C(=O)NCC(=O)N[C@@H](CCCNC(=N)N)C(=O)N[C@H](C(=O)NCC(=O)N[C@@H](CCCNC(=N)N)C(=O)N[C@@H](CCCNC(=N)N)C(=O)N[C@@H](CC(N)=O)C(=O)N[C@@H](C)C(N)=O)[C@@H](C)O; UniProt P61925 14-22, looked up, fragment) [PKI1422]
- effect of preincubation on ion currents elicited by 8-bromo-cAMP: not significantly altered
